Source: the supplement of paper PMC10065799, “High-throughput profiling of sequence recognition by tyrosine kinases and SH2 domains using bacterial peptide display” (eLife, 2023)

What was measured:
Grb2 SH2 = Grb2 SH2 (UniProt P62993); assay: SH2 binding enrichment of the phosphorylated peptide, bacterial display (enrichment ratio); higher = better substrate or ligand; peptides without Tyr show the background
c-Src SH2 = assay: as above
SHP2-C SH2 = assay: as above
Hck = Hck (UniProt P08631); assay: phosphorylation enrichment, bacterial display (enrichment ratio); higher = better substrate or ligand; peptides without Tyr show the background
EPHB2 = EPHB2 (UniProt P29323); assay: as above
Jak2 = Jak2 (UniProt O60674); assay: as above
Fer (mouse) = assay: as above
FGFR3 = FGFR3 (UniProt P22607); assay: as above
AncSZ = assay: as above
FGFR1 = FGFR1 (UniProt P11362); assay: as above
c-Src = assay: as above
MERTK = MERTK (UniProt Q12866); assay: as above
EPHB1 = EPHB1 (UniProt P54762); assay: as above
Fyn = Fyn (UniProt P06241); assay: as above
Fes = Fes (UniProt P07332); assay: as above
c-Abl (mouse) = assay: as above
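For SH2 binding enrichment of the phosphorylated peptide, bacterial display in this document: peptide library displayed on the E. coli surface as eCPX fusions, selected cells deep-sequenced, score is each peptide's frequency after selection divided by its frequency in the input.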
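For phosphorylation enrichment, bacterial display in this document: 11-residue human phosphosite peptides and single-mutation variants displayed on the E. coli surface, counted by deep sequencing, each peptide's frequency after selection divided by its frequency in the unselected input library; frequency after pTyr selection over input frequency; kinase dosed for 20-30% of maximal phosphorylation in three min.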

MERTK, sequence (Q12866 whole entry, looked up): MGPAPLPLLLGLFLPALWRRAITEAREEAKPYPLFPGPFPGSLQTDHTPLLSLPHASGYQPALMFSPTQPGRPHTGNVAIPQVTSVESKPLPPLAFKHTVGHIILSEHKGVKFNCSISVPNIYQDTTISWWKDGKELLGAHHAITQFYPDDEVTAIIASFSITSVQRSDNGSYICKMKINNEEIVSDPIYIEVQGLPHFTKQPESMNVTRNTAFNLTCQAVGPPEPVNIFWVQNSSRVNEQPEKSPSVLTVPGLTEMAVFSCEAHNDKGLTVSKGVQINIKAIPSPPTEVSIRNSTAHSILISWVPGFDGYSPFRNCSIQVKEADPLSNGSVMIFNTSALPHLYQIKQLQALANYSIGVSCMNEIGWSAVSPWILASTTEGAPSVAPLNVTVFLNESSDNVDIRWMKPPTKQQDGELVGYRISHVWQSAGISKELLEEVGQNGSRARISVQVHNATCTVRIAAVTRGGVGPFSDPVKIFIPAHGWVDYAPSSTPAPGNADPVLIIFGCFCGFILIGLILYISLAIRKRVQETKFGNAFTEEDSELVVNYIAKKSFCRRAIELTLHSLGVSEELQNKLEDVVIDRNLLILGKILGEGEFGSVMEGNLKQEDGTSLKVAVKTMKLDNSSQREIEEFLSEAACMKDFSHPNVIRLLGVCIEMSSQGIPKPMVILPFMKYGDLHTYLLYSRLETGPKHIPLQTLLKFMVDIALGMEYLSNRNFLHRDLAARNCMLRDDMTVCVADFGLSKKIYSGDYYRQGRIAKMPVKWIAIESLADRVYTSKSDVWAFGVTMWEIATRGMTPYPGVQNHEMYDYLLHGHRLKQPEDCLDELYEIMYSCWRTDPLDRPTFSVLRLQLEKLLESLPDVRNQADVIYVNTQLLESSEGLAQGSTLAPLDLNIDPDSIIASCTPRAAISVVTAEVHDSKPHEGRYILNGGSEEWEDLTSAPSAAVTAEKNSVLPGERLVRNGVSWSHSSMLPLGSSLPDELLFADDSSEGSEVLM
EPHB1, sequence (P54762 whole entry, looked up): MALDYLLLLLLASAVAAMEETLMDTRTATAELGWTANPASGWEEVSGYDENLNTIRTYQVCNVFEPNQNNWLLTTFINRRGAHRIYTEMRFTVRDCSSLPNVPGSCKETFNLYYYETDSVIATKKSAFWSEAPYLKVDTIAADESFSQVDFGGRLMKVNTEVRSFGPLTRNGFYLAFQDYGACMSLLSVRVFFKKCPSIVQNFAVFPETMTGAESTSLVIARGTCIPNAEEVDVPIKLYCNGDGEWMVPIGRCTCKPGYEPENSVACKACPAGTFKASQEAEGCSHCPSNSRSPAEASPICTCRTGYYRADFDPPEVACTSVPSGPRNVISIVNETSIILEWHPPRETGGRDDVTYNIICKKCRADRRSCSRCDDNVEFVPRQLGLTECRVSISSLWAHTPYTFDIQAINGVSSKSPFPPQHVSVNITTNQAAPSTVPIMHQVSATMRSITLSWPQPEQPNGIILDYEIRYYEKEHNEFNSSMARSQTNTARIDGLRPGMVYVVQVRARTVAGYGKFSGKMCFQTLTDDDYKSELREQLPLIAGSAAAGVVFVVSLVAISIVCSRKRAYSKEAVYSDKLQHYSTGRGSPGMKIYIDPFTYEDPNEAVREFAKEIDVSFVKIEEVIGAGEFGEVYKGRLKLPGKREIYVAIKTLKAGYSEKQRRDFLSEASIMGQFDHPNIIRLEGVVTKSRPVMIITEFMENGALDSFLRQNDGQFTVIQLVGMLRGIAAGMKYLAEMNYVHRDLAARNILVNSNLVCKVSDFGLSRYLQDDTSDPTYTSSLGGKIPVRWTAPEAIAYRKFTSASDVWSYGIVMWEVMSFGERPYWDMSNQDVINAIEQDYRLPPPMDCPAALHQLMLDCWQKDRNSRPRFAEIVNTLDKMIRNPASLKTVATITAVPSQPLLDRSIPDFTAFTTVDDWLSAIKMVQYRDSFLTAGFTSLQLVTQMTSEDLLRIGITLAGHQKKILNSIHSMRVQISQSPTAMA
Fyn, sequence (P06241 whole entry, looked up): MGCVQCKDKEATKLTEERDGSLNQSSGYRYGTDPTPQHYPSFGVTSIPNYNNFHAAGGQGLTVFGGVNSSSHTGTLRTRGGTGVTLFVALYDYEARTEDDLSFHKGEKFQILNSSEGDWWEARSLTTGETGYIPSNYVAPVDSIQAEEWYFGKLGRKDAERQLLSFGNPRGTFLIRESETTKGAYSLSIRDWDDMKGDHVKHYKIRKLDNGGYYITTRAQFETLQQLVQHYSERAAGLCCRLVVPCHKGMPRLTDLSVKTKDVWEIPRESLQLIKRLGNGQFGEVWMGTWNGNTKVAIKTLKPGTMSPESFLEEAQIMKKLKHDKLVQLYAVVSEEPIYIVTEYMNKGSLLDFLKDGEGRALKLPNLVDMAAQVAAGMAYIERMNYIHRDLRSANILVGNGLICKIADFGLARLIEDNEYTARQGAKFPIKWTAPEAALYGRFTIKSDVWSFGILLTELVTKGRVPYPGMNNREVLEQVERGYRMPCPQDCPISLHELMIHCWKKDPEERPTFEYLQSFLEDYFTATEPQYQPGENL
EPHB2, sequence (P29323 whole entry, looked up): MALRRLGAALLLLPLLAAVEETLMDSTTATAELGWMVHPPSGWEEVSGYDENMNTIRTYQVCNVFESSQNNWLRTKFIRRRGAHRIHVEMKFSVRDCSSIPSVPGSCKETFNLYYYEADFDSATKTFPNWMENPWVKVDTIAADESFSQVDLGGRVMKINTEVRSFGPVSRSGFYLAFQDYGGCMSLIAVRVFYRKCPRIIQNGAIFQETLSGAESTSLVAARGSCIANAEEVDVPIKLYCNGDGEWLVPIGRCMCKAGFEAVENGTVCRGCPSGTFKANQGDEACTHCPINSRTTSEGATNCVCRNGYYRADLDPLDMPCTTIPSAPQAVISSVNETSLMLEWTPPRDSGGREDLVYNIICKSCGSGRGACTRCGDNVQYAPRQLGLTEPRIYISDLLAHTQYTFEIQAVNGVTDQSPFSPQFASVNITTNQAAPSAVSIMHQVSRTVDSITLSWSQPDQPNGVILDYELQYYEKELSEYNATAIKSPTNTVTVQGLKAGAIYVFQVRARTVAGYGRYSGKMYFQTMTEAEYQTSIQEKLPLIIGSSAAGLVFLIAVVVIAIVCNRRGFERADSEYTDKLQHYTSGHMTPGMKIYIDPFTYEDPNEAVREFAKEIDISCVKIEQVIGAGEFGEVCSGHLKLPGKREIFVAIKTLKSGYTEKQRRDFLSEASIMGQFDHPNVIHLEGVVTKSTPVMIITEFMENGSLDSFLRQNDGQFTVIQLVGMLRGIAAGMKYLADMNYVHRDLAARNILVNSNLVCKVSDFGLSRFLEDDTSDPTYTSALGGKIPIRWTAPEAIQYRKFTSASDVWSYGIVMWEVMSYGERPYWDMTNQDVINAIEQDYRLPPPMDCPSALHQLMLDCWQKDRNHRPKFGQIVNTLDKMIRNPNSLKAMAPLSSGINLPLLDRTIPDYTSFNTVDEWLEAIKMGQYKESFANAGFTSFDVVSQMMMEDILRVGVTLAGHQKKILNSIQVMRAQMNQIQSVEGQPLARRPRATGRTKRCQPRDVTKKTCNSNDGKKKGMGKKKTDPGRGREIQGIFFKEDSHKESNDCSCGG
Jak2, sequence (O60674 whole entry, looked up): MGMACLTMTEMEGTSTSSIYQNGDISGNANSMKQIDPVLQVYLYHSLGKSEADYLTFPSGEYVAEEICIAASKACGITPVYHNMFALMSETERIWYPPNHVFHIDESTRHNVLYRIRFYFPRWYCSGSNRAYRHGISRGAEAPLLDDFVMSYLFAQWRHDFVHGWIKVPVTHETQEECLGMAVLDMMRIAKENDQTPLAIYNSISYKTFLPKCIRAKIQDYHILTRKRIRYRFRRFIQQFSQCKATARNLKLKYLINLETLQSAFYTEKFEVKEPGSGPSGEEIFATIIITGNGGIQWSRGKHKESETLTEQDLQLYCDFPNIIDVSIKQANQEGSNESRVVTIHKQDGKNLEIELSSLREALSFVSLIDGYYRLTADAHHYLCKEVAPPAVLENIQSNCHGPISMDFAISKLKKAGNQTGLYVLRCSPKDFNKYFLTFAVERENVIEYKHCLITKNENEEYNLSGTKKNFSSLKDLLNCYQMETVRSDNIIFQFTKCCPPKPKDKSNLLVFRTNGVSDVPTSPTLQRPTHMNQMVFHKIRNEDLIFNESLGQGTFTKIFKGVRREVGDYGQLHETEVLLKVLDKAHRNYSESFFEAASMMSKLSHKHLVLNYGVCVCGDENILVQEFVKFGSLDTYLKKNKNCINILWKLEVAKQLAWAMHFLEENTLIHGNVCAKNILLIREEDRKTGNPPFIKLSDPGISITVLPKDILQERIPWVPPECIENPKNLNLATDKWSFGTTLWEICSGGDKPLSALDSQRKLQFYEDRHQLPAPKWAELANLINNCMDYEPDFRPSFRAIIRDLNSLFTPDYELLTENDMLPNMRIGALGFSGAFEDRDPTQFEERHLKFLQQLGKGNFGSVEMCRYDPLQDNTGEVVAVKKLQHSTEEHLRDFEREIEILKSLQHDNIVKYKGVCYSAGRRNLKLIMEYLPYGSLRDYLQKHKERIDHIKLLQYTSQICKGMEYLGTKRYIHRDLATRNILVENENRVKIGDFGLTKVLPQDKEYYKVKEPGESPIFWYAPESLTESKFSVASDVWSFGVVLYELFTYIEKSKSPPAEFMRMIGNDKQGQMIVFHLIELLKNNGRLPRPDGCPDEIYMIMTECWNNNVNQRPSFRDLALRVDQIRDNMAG

SH2 binding enrichment (Grb2 SH2)	SH2 binding enrichment (c-Src SH2)	SH2 binding enrichment (SHP2-C SH2)	Sequence	phosphorylation enrichment (Hck)	phosphorylation enrichment (EPHB2)	phosphorylation enrichment (Jak2)	phosphorylation enrichment (Fer (mouse))	phosphorylation enrichment (FGFR3)	phosphorylation enrichment (AncSZ)	phosphorylation enrichment (FGFR1)	phosphorylation enrichment (c-Src)	phosphorylation enrichment (MERTK)	phosphorylation enrichment (EPHB1)	phosphorylation enrichment (Fyn)	phosphorylation enrichment (Fes)	phosphorylation enrichment (c-Abl (mouse))
0.769	0.473	0.743	DRFANYIEKVR [DES_Y122]	0.42	0.424	1.02	0.41	0.508	0.628	0.419	0.425	0.367	0.523	0.434	0.759	0.728
0.724	0.593	0.661	DSASAYADEVK [ETNPPL_Y189]	0.653	0.544	1.15	0.53	0.685	1.28	0.655	0.638	0.601	0.536	0.549	1.04	0.685
0.754	0.538	0.951	DSNLIYSQIWS [FCRL3_Y662_P660L]	9.1	17.1	2.46	15.7	6.79	2.1	7.38	7.08	10	15.2	9.04	12.2	15.4
0.739	1.02	0.618	DVCKNYAEAKD [ALB_Y343]	0.571	0.561	1.14	0.495	0.702	1.07	0.569	0.55	0.448	0.541	0.509	1.19	0.804
0.718	0.47	0.537	DVMDFYKTLRG [NR3C1_Y30]	0.434	0.423	0.685	0.41	0.484	0.719	0.393	0.342	0.394	0.404	0.451	0.728	0.571
1.1	0.541	0.692	DVQNEYDSNHC [ZFYVE16_Y36_A35E]	0.576	0.513	0.701	0.414	0.665	1.01	0.512	0.444	0.477	0.508	0.59	1.07	0.671
0.922	0.623	0.727	DYLEKYYKFGS [NNMT_Y24]	0.402	0.436	0.791	0.369	0.553	0.631	0.486	0.636	0.494	0.33	0.436	0.768	0.458
0.941	0.668	0.616	EAEPFYCSLRD [NPHS1_Y1139_R1140C_YF]	2.54	1.27	1.17	2.19	0.896	1.54	0.668	2.86	1.67	1.19	2.66	1.36	0.878
1.19	0.521	0.628	EAEPFYRSLRD [NPHS1_Y1139_YF]	0.644	0.545	0.893	0.451	0.707	0.792	0.536	0.53	0.539	0.461	0.433	1.18	0.743
0.931	1.91	0.908	EAEPYYCSLRD [NPHS1_Y1139_R1140C]	2.94	1.21	1.33	1.85	1.31	1.78	1.34	4.11	2.28	1.17	3.37	1.43	1.62
0.659	0.493	0.642	EAIMTYVSSFF [ACTN4_Y260_K255E_YF]	0.643	0.726	0.9	0.468	0.675	1.02	0.501	0.975	0.422	0.621	0.778	1.04	0.842
0.775	0.503	0.731	EALDFYGELRT [PTEN_Y155_V158L]	1.25	0.764	1.33	0.779	0.964	1.27	0.571	0.805	0.453	0.771	0.933	1.48	0.843
0.805	0.504	0.604	EARRVYGDIIY [ALDH5A1_Y175_H180Y]	1.27	0.725	0.813	0.648	0.579	0.683	0.491	1.14	0.42	0.455	1.59	0.834	0.597
0.901	0.417	0.696	EASEQYLTKAS [NRCAM_Y739]	0.43	0.425	0.793	0.463	0.556	0.711	0.571	0.458	0.485	0.424	0.496	0.802	0.798
0.774	0.414	0.796	EEALFYLTRVE [SET_Y119_H118Y_YF]	0.68	0.828	1.61	0.835	1.05	1.43	0.599	0.557	0.472	0.967	0.58	1.67	1.03
0.758	0.532	1.16	EEALHYLTRVE [SET_Y119]	0.586	0.536	1	0.492	0.724	1.02	0.47	0.462	0.469	0.73	0.466	1.13	0.748

Sequence	SH2 binding enrichment (Grb2 SH2)	SH2 binding enrichment (c-Src SH2)	SH2 binding enrichment (SHP2-C SH2)	phosphorylation enrichment (Hck)	phosphorylation enrichment (EPHB2)	phosphorylation enrichment (Jak2)	phosphorylation enrichment (Fer (mouse))	phosphorylation enrichment (FGFR3)	phosphorylation enrichment (AncSZ)	phosphorylation enrichment (FGFR1)	phosphorylation enrichment (c-Src)	phosphorylation enrichment (MERTK)	phosphorylation enrichment (EPHB1)	phosphorylation enrichment (Fyn)	phosphorylation enrichment (Fes)	phosphorylation enrichment (c-Abl (mouse))
DRLAVYIDRVR [LMNA_Y45]	1.07	0.682	0.861	0.434	0.554	0.892	0.488	0.745	1.24	0.418	0.359	0.41	0.542	0.476	1.11	0.61
